The results in this text go back to publication PMC4729865 (Nature Communications, 2016).

The chains are these.
B3: Flag-Cep57 (natural protein, human, UniProt Q86XR8 1-500, looked up)
chain: MAAASVSAASGSHLSNSFAEPSRSNGSMVRHSSSPYVVYPSDKPFLNSDLRRSPSKPTLAYPESNSRAIFSALKNLQDKIRRLELERIQAEESVKTLSRETIEYKKVLDEQIQERENSKNEESKHNQELTSQLLAAENKCNLLEKQLEYMRNMIKHAEMERTSVLEKQVSLERERQHDQTHVQSQLEKLDLLEQEYNKLTTMQALAEKKMQELEAKLHEEEQERKRMQAKAAELQTGLETNRLIFEDKATPCVPNARRIKKKKSKPPEKKSSRNYFGAQPHYRLCLGDMPFVAGKSTSPSHAVVANVQLVLHLMKQHSKALCNDRVINSIPLAKQVSSRGGKSKKLSVTPPSSNGINEELSEVLQTLQDEFGQMSFDHQQLAKLIQESPTVELKDKLECELEALVGRMEAKANQITKVRKYQAQLEKQKLEKQKKELKATKKTLDEERNSSSRSGITGTTNKKDFMKLRPGEKRRKNLQLLKDMQSIQNSLQSSSLCWDY
notes: Cep57 (translokin), human; cDNA amplified from a HeLa cell cDNA library; also called purified Cep57 from HEK293T cells; source: HEK293T, purified (anti-Flag beads, 600 mM NaCl wash, eluted by 3 x Flag peptides); not shown: Flag, N-terminal, kept

Common to all, as to settings: both partners purified
The target of one experiment is T1, Flag-Mad1 (human, UniProt Q9Y6D9 1-718).
T1 construct: Mad1, human; cDNA amplified from a HeLa cell cDNA library; also called Flag-Mad1 (FL); source: HEK293T, purified (anti-Flag beads, 600 mM NaCl wash, eluted by 3 x Flag peptides); not shown: Flag, N-terminal, kept
T1 sequence (looked up): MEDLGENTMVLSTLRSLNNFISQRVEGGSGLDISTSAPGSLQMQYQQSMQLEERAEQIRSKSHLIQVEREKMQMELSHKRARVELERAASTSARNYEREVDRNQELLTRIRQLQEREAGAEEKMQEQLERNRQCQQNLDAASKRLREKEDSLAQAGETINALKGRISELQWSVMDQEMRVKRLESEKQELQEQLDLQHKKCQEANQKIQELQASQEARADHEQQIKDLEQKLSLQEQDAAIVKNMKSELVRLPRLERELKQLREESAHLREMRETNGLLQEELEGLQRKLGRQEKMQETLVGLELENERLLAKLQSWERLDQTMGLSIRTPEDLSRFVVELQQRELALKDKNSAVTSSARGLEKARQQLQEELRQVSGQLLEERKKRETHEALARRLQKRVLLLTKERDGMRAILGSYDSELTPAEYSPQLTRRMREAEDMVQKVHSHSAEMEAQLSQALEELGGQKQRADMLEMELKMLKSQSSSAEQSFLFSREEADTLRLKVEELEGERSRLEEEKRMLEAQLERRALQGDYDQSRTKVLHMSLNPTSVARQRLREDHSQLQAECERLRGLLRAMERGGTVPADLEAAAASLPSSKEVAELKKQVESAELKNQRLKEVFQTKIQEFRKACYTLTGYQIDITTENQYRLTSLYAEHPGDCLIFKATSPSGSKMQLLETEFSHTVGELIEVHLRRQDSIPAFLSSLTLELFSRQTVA
The experiment is described as follows: co-IP; purified proteins incubated together, immunoprecipitated with anti-Flag or anti-GFP antibody, western blotting.

In experiment [1] the target is T2, GST-Mad1 (176–718 amino acids) (human, UniProt Q9Y6D9 176-718).
T2 construct: source: E. coli BL21, purified (Glutathione Sepharose 4B, eluted by glutathione); not shown: GST, N-terminal, kept
T2 sequence (looked up): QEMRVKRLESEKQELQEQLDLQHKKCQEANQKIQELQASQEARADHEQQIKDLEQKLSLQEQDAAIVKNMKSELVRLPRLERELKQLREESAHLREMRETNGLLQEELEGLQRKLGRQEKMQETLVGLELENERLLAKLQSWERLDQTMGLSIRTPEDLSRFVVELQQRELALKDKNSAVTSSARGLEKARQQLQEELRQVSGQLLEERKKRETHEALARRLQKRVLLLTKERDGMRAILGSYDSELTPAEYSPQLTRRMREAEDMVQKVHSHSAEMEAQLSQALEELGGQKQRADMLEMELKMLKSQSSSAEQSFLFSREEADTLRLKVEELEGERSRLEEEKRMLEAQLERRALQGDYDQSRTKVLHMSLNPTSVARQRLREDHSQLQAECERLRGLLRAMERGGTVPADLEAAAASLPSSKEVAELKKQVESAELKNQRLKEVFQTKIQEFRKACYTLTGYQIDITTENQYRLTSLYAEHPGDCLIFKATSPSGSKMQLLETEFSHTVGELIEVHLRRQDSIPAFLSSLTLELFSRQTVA
Description: pull-down; about 0.2 μg MBP-Cep57 fragment coupled to Amylose Magnetic beads incubated with about 0.2 μg purified, eluted GST-tagged protein; washed five times with lysis buffer; western blotting with anti-GST.

A further experiment has as its target T3, Mad1-GFP (human, UniProt Q9Y6D9 1-718).
T3 construct: Mad1, human; cDNA amplified from a HeLa cell cDNA library; not shown: GFP, C-terminal, kept
T3 sequence (looked up): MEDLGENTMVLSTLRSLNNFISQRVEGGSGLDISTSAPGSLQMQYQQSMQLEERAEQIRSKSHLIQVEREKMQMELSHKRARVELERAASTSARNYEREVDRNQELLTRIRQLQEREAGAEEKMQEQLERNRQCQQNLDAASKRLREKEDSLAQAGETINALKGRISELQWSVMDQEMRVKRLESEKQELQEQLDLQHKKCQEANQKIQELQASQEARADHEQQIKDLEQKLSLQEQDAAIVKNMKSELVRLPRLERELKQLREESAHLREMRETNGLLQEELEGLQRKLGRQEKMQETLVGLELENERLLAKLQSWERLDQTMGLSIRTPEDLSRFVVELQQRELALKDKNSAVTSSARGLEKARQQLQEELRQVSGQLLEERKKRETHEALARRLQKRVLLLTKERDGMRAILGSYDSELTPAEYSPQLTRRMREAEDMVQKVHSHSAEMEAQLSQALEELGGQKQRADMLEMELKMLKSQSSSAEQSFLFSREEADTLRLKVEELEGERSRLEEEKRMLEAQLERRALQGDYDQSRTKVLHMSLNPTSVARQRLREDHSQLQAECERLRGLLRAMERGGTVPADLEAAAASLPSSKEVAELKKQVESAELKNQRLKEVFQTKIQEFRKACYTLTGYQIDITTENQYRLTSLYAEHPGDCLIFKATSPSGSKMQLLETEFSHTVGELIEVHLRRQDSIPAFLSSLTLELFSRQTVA
Description: co-IP; purified proteins incubated together, immunoprecipitated with anti-Flag or anti-GFP antibody, western blotting.

Experiment [2] has as its target T4, MBP-Cep57 (1–242 amino acids) (human, UniProt Q86XR8 1-242).
T4 construct: also called MBP-Cep57N; source: E. coli BL21, purified (Amylose Magnetic beads); not shown: MBP, N-terminal, kept
T4 sequence (looked up): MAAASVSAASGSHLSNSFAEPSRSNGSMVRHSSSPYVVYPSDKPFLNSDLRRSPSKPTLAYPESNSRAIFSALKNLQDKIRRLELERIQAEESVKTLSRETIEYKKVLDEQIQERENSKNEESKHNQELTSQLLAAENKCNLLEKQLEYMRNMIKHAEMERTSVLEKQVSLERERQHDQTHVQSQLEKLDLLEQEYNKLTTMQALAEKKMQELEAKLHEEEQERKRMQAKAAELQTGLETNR
The experiment is described as follows: pull-down; about 0.2 μg MBP-Cep57 fragment coupled to Amylose Magnetic beads incubated with about 0.2 μg purified, eluted GST-tagged protein; washed five times with lysis buffer; western blotting with anti-GST.

The experiment “Flag-Cep57” deals with B3. The experiment is described as follows: co-IP; purified proteins incubated together, immunoprecipitated with anti-Flag or anti-GFP antibody, western blotting.

B1: GST-Cep57 (195–500 amino acids) (domain or fragment, human, UniProt Q86XR8 195-500, looked up)
chain: EYNKLTTMQALAEKKMQELEAKLHEEEQERKRMQAKAAELQTGLETNRLIFEDKATPCVPNARRIKKKKSKPPEKKSSRNYFGAQPHYRLCLGDMPFVAGKSTSPSHAVVANVQLVLHLMKQHSKALCNDRVINSIPLAKQVSSRGGKSKKLSVTPPSSNGINEELSEVLQTLQDEFGQMSFDHQQLAKLIQESPTVELKDKLECELEALVGRMEAKANQITKVRKYQAQLEKQKLEKQKKELKATKKTLDEERNSSSRSGITGTTNKKDFMKLRPGEKRRKNLQLLKDMQSIQNSLQSSSLCWDY
notes: also called C terminus of Cep57; C-terminal Cep57; source: E. coli, purified (Glutathione Sepharose 4B); not shown: GST, N-terminal, kept
For B1, the binding result with Flag-Mad1 is reported as “binds”.

B2: MBP-Cep57 (151–500 amino acids) (domain or fragment, human, UniProt Q86XR8 151-500, looked up)
chain: RNMIKHAEMERTSVLEKQVSLERERQHDQTHVQSQLEKLDLLEQEYNKLTTMQALAEKKMQELEAKLHEEEQERKRMQAKAAELQTGLETNRLIFEDKATPCVPNARRIKKKKSKPPEKKSSRNYFGAQPHYRLCLGDMPFVAGKSTSPSHAVVANVQLVLHLMKQHSKALCNDRVINSIPLAKQVSSRGGKSKKLSVTPPSSNGINEELSEVLQTLQDEFGQMSFDHQQLAKLIQESPTVELKDKLECELEALVGRMEAKANQITKVRKYQAQLEKQKLEKQKKELKATKKTLDEERNSSSRSGITGTTNKKDFMKLRPGEKRRKNLQLLKDMQSIQNSLQSSSLCWDY
notes: Cep57, human, residues 151-500; source: E. coli BL21, purified (Amylose Magnetic beads); not shown: MBP, N-terminal, kept
Turning to B2, the binding result in experiment [1] was “binds”.

For the molecule B3, the binding result in the experiment with Mad1-GFP is on record as “binds”.

B4: GST-Mis12 (natural protein, human, UniProt Q9H081 1-205, looked up)
chain: MSVDPMTYEAQFFGFTPQTCMLRIYIAFQDYLFEVMQAVEQVILKKLDGIPDCDISPVQIRKCTEKFLCFMKGHFDNLFSKMEQLFLQLILRIPSNILLPEDKCKETPYSEEDFQHLQKEIEQLQEKYKTELCTKQALLAELEEQKIVQAKLKQTLTFFDELHNVGRDHGTSDFRESLVSLVQNSRKLQNIRDNVEKESKRLKIS
notes: Mis12, human; cDNA amplified from a HeLa cell cDNA library; also called Mis12 from bacteria; WT GST-Mis12; source: E. coli BL21, purified (Glutathione Sepharose 4B, eluted by glutathione); not shown: GST, N-terminal, kept
In the case of B4, the binding result (in experiment [2]; in the experiment with Flag-Cep57) was “binds” in each case.
